{"source": "the DeepSol protein solubility set"}
{"test": "soluble on expression in E. coli; label from the status in PepcDB or PDB records"}
{"sequence": "MFLSVVTVAFRNYEGVVKTWRSLRNLARDPGLSFEWIVVDGGSEDGTREFLQKRHGEFNLRFISEKDRGIYDAMNKGIALAQGRYTLFLNSGDAFHDDAALFVRQLARQKGEAMYIGDALLDFGGGHKIRRKAKPGYYIYHSLPASHQAIFFPTAALKKYPYDLQYHVSSDYALAARLYKAGYPFRRINGLVSEFSMGGVSTSNNLELCQDAKNVQRKILRVPGFWAQLSYLLRLKTTGKTKARYNKVLEHHHHHH", "soluble on expression in E. coli": "not soluble"}
{"sequence": "MFNCLGMGNRDFIEGASGATWVDLVLEGDSCLTIMANDKPTLDVRMINIEASQLAEVRSYCYHASVTDISTVARCPTTGEAHNEKRADSSYVCKQGFTDRGWGNGCGFFGKGSIDTCAKFSCTSKAIGRTIQPENIKYKVGIFVHGTTTSENHGNYSAQVGASQAAKFTVTPNAPSVTLKLGDYGEVTLDCEPRSGLNTEAFYVMTVGSKSFLVHREWFHDLALPWTSPSSTAWRNRELLMEFEGAHATKQSVVALGSQEGGLHQALAGAIVVEYSSSVMLTSGHLKCRLKMDKLALKGTTYGMCTEKFSFAKNPVDTGHGTVVIELSYSGSDGPCKIPIVSVASLNDMTPVGRLVTVNPFVATSSANSKVLVEMEPPFGDSYIVVGRGDKQINHHWHKAGSTLGKA", "soluble on expression in E. coli": "not soluble"}
{"sequence": "MFNCLGTSNRDFVEGASGATWIDLVLEGGSCVTVMAPEKPTLDFKVMKMEATELATVRKYCYEATLDTLSTVARCPTTGEAHNTKRSDPTFVCKRDVVDRGWGNGCGLFGKGSIDTCAKFTCKNKATGKTILRENIKYEVAIFVHGSTDSTSHGNYFEQIGKNQAARFTISPQAPSFTANMGEYGTVTIDCEARSGINTEDYYVFTVKEKSWLVNRDWFHDLNLPWTSPATTDWRNRETLVEFEEPHATKQTVVALGSQEGALHTALAGAIPATVSSSTLTLQSGHLKCRAKLDKVKIKGTTYGMCDSAFTFSKNPTDTGHGTVIVELQYTGSNGPCRVPISVTANLMDLTPVGRLVTVNPFISTGGANNKVMIEVEPPFGDSYIVVGRGTTQINYHWHKEGSSIGKA", "soluble on expression in E. coli": "not soluble"}
{"sequence": "MFNEKDQLAVDTLRALSIDTIEKANSGHPGLPMGAAPMAYTLWTRHLNFNPQSKDYFNRDRFVLSAGHGSALLYSLLHVSGSLELEELKQFRQWGSKTPGHPEYRHTDGVEVTTGPLGQGFAMSVGLALAEDHLAGKFNKEGYNVVDHYTYVLASDGDLMEGISHEAASFAGHNKLSKLVVLYDSNDISLDGELNKAFSENTKARFEAYGWNYLLVKDGNDLEEIDKAITTAKSQEGPTIIEVKTTIGFGSPNKAGTNGVHGAPLGEVERKLTFENYGLDPEKRFNVSEEVYEIFQNTMLKRANEDESQWNSLLEKYAETYPELAEEFKLAISGKLPKNYKDELPRFELGHNGASRADSGTVIQAISKTVPSFFGGSADLAGSNKSNVNDATDYSSETPEGKNVWFGVREFAMGAAVNGMAAHGGLHPYGATFFVFSDYLKPALRLSSIMGLNATFIFTHDSIAVGEDGPTHEPIEQLAGLRAIPNMNVIRPADGNETRVAWEVALESESTPTSLVLTRQNLPVLDVPEDVVEEGVRKGAYTVYGSEETPEFLLLASGSEVSLAVEAAKDLEKQGKSVRVVSMPNWNAFEQQSEEYKESVIPSSVTKRVAIEMASPLGWHKYVGTAGKVIAIDGFGASAPGDLVVEKYGFTKENILNQVMSL", "soluble on expression in E. coli": "not soluble"}
{"sequence": "MFNKASFLTRLVASSVRVSEAAGGLIKNVMAGGDLKIIDKSEHGSGYDPQTEADRRAQYCIVQSLQKHFKNINIIGEEEDTTACPEIEMGFSADVLQMERLMSTELKNIQENDVVVWVDPLDGTSEVALAVKNKNMALLEQVTVLIGIAYKGRPVAGIIHQPYHEKLGRTVWAIQGCGVHGVVPATGNAQKIVVTTRSHLSESVSNALEALKTRNLADSVEKVGGAGFKVLKVLEGCAAYVFASAGCKKWDTCAVEAVLTAAGGTLTDISGRDIRYEPGVQLNNTGGVLATASWVKHKDYIDTIPQEIKNMLPEISSKK", "soluble on expression in E. coli": "not soluble"}
{"sequence": "MFNLGSMFNLGPSEPVVGKASILLECPAGKAFKFIGENLFLNYPRWSPEVKELEQLTHGPVCLGTIARQVRVDQGHRSESKFRITIYEPDRRVAFAGISDPFRCVYELLDEQNSGSTRLLFKFELLEIQMIMRPFEPMIRTAVQDGAERTVQNIKRLVESEPGALEHHHHHH", "soluble on expression in E. coli": "soluble"}
{"sequence": "MFNRIMVPVDGSKGAVKALEKGVGLQQLTGAELYILCVFKHHSLLEASLSMARPEQLDIPDDALKDYATEIAVQAKTRATELGVPADKVRAFVKGGRPSRTIVRFARKRECDLVVIGAQGTNGDKSLLLGSVAQRVAGSAHCPVLVV", "soluble on expression in E. coli": "soluble"}
{"sequence": "MFPAQEEADRTVFVGNLEARVREEILYELFLQAGPLTKVTICKDREGKPKSFGFVCFKHPESVSYAIALLNGIRLYGRPINVQYRFGSSRSSEPANQSFESCVKINSHNYRNEEMLVGRSSFPMQYFPINNTSLPQEYFLFQKMQWHVYNPVLQLPYYEMTAPLPNSASVSSSLNHVPDLEAGPSSYKWTHQQPSDSDLYQMTAPLPNSASVSSSLNHVPDLEAGPSSYKWTHQQPSDSDLYQMNKRKRQKQTSDSDSSTDNNRGNECSQKFRKSKKKKRY", "soluble on expression in E. coli": "soluble"}
{"sequence": "MFQGCYGGTQKHEPDLHIVLERAWQQGLQKVIVTAGCLKDVDEALELASKDERIYTTVGTHPTRCEEFVPDPEGYYDQLRSRIKANRTKVRAVGECGLDYDRLHFCAQETQRLYFEKQLDLAAEFKLPLFLHMRNAAEDFMGILERNRNKIEECGGGVVHSFTGTLEEAQRILAFGGLYIGFNGCSLKTDENAEVVRKLPNDRIMLETDCPWCGIRPSHAGHKHVTTKFPTVKKKEKWTAESLIDGRCEPCQISQVLESIAGIKQEPKEQLAALYYQNTLDLFFGTGESKELEHHHHHH", "soluble on expression in E. coli": "not soluble"}
{"sequence": "MFQIGEHNMILIYKLTLTKLTEDELKKDFATIPSWATHLDLSNNRLGETSNEELIRVFAKIPGWISHIKLRFNNLGQKNGKDLAKAFAKIPISVTTLDLGSNQLGKKSGEELANAFAGIPTSVTRLILSQNELYKRTGGELATAFAKIPSSVTHLVLVNNGLGEKNGKELATAFANIPSSVTTLDLALNDLSKIKSTELAVIFTKIPTSVTQLDLSHNNLNKKSGKNLAKIFANIPTSVTNLNLSCNELGKKSGKGLAAAFAKIPTSVTDLNIEDNDLDNRTGKELAMAFAHIPAFVNTLRLGDNNLGNKSGEELAEIFAKIPLSVTSLDLRYNELGKRNGKELAIAFAKIPSSVTNLNLKFNHLGKITGEELAMAFANIPTNVDSLVLANNELGAKSGEELAKIFSKIPASITSLNMGNDWFAVIEKLSQQKMVLSTITHVVIDYSSAQEHSAKLKLLATVFPNLNKVTFMDIHGNNALAGQNPIEEAKWLKLCGIKNSVPSLLSQALFFVAKNKEHRSIQDYPSLLPKELTDSISSLLKC", "soluble on expression in E. coli": "not soluble"}
{"sequence": "MFQKILIANRGEIAVRIMKTCQKLGIRTVAIYSEADENALHVKMANEAYLVGGPRVQESYLNLEKIIEIAKKTNAEAIHPGYGLLSENPSFPVRCKEEGIVFIGPSEEIITKMGSKIESRIAMQAADVPVVPGITTNIETAEEAIEIAKQIGYPLMLKASAGGGGIGMQLMETEQTLTKAFESNKTRAQNFFGNGEMYLERYIADAHHIEIQLLADTHGNTVYLWERECSVQRRNQKVIEEAPSPFLDEGTRKAMGEIAVQAAKALGYTNAGTVEFLVDEQKNFYFLEMNTRLQVEHPVTEEITGLDLVEQQLLIAYGEKLSFTQDDIKRSGHAIEARIYAEDPKTFFPSPGKITDLTLPTNVRIDHFLENQVTITPFYDPMIAKVIAHGETREEAISKLHDALEELKVEGIKTNTPMLLQVLEDDVFKSGIYTTGFVTKQLVKK", "soluble on expression in E. coli": "not soluble"}
{"sequence": "MFQPQDDQDACYDNSIHYTDSLLGQVFELLKDRRASVMYFADHGLERDPTKKNVYFHGGREASQQAYHVPMFIWYSPVLGDGVDRTTENNIFSTAYNNYLINAWMGVTKPEQPQTLEEVIAHYKGDSRVVDANHDVFDYVMLRKEFTEDKQGNPTPEGQG", "soluble on expression in E. coli": "not soluble"}
{"sequence": "MFQPVTQKRLTNVSVVRMRKGGKRFEIACYPNMVMAYREGHVRDLDEVIQVEDVFENVSKGKLAANADLERCFGTRDRHAVLLQILLHGDLQVSDRERQYQSTRKLHEIASVVAAKTISRETKKPLPVGLIEKALREIHFAVQPNRPAKAQALEVIPLLRAQSGLDLERARLRLRIHVPSQRDAKAVKARLEPLQQGETDGTHSSSRSDSVRMKDGSAAVESESEEWLPGGALLWTVQADPGAFREIEEIVQRETNQQGIVEVASLRVLDDEDESILS", "soluble on expression in E. coli": "not soluble"}
{"sequence": "MFREESRSVPVEEGEVYDVTIQDIARQGDGIARIEGFVIFVPGTKVGDEVRIKVERVLPKFAFASVVELEHHHHHH", "soluble on expression in E. coli": "not soluble"}
{"sequence": "MFRRKLTALDYHNPAGFNCKDETEFRNFIVWLEDQKIRHYKIEDRGNLRNIHSSDWPKFFEKYLRDVNCPFKIQDRQEAIDWLLGLAVRLEYGDNAEKYKDLVPDNSKTADNATKNAEPLINLDVNNPDFKAGVMALANLLQIQRHDDYLVMLKAIRILVQERLTQDAVAKANQTKEGLPVALDKHILGFDTGDAVLNEAAQILRLLHIEELRELQTKINEAIVAVQAIIADPKTDHRLGKVGRLEHHHHHH", "soluble on expression in E. coli": "soluble"}
{"sequence": "MFRVGILTVSDKGFRGERQDTTHLAIREVLAGGPFEVAAYELVPDEPPMIKKVLRLWADREGLDLILTNGGTGLAPRDRTPEATRELLDREVPGLAELMRLVGLRKTPMAALSRGVAGVRGRTLILNLPGSPKGARESLEAVLPVLPHALSLVTGKPWKEGHHE", "soluble on expression in E. coli": "soluble"}
{"sequence": "MFSISLLSCLFLGTVPALAQTGGERRLSPEKSEIWGPGLKAHVVLPVRYFYIRAVDTSGEQFTSSPGEKVFQVKISAPDEQFTRVGVQVLDRKDGSFIVRYRMYASYRNLKIEVKHHGQHVAESPYVLRGPVYHENCDCPLEDSAAWLREMNCSETISQIQKDLAHFPTVDPEKIAAEIPKRFGQRQSLCHYTLKDNKVYIKTHGEHVGFRIFMDAILLSLTRKVRMPDVEFFVNLGDWPLEKKKSNSNIQPIFSWCGSTESRDIVMPTYDLTDSVLETMGRVSLDMMSVQANTGPPWESKNSTAVWRGRDSRKERLELVKLSRKHPELIDAAFTNFFFFKHDESLYGPIVKHISFFDFFKHKYQINIDGTVAAYRLPYLLVGDSVVLKQDSIYYEHFYNELQPWKHYIPVKSNLSDLLEKLKWAKEHDAEAKKIAKAGQEFARNNLMGDDIFCYYFKLFQGYANLQVSEPQIREGMKRVEPQSEDDLFPCTCHRRKAKDEL", "soluble on expression in E. coli": "soluble"}
{"sequence": "MFSLRDAKCGQTVKVVKLHGTGALKRRIMDMGITRGCEIYIRKVAPLGDPIQINVRGYELSLRKSAAEMIEVE", "soluble on expression in E. coli": "not soluble"}
{"sequence": "MFSPTFKSFLLLCLLVVNSWAQDPTTTATSTTTVPSTSTVTTTTVASTSSGSTTASTAAGGSTSTTAAGGSTASTAAGGSTSTTAAGGSTASTAAGGPTGSTAAGGSTASTAAGGSTASTAAGGSTASTVAGATSVVPSSPAPPTQPPVNNGCELGWKFFNRPSGGWCIKVFPGYFALKEHAENACQANGAATLTGLQNKAEALFIQCEYRNSPYFSCFSCFQNSVLGYCSSTVEVLYEYSSMLSEMSAPSGSVWIGIHRTPACNRKPLSAQCNKNTAFRWTDKSATGVDGFVFQRGQPDNGGRALNQNCALLLASSKPFIDAGGRYYAAQMEDVHCNATFVPGNMARKTSGYACGKPNKCQPGWKFFDRQSGGWCMKVFTGFHAAKVDAEAACKDVGATLSGLENKEEAIFIQNALLARISQASGSVWIGIQRKAECLGKGLTASGTPTTSFEWTDNSASGVGGMVFQAGQPDNGVTALNQNCALLLASSQPYIDARGRFYAATMEDVPCVANFVASNEARRTRGYVCGKPL", "soluble on expression in E. coli": "not soluble"}
